Measurements reported in doi:10.1101/2022.08.13.503841 (bioRxiv, 2022).

Biological target: the molecule itself
Test: cryo-EM structure

B1: Chikungunya virus non-structural protein 1 (nsP1) (enzyme)
chain: MDPVYVDIDADSAFLKALQRAYPMFEVEPRQVTPNDHANARAFSHLAIKLIEQEIDPDSTILDIGSAPARRMMSDRKYHCVCPMRSAEDPERLANYARKLASAAGKVLDRNISGKIGDLQAVMAVPDTETPTFCLHTDVSCRQRADVAIYQDVYAVHAPTSLYHQAIKGVRLAYWVGFDTTPFMYNAMAGAYPSYSTNWADEQVLKAKNIGLCSTDLTEGRRGKLSIMRGKKLEPCDRVLFSVGSTLYPESRKLLKSWHLPSVFHLKGKLSFTCRCDTVVSCEGYVVKRITMSPGLYGKTTGYAVTHHADGFLMCKTTDTVDGERVSFSVCTYVPATICDQMTGILATEVTPEDAQKLLVGLNQRIVVNGRTQRNTNTMKNYMIPVVAQAFSKWAKECRKDMEDEKLLGVRERTLTCCCLWAFKKQKTHTVYKRPDTQSIQKVQAEFDSFVVPSLWSSGLSIPLRTRIKWLLSKVPKTDLTPYSGDAQEARDAEKEAEEEREAELTLEALPPLQAAQEDVQVEIDVEQLEDRAGA
stoichiometry N: 12
